Results taken from patent US20060115897A1.

Molecular target: C3b (UniProt P01024)
Test: cell-based or functional assay

Chain of C3b (P01024 749-1663 limits assumed, chain 1 of 2): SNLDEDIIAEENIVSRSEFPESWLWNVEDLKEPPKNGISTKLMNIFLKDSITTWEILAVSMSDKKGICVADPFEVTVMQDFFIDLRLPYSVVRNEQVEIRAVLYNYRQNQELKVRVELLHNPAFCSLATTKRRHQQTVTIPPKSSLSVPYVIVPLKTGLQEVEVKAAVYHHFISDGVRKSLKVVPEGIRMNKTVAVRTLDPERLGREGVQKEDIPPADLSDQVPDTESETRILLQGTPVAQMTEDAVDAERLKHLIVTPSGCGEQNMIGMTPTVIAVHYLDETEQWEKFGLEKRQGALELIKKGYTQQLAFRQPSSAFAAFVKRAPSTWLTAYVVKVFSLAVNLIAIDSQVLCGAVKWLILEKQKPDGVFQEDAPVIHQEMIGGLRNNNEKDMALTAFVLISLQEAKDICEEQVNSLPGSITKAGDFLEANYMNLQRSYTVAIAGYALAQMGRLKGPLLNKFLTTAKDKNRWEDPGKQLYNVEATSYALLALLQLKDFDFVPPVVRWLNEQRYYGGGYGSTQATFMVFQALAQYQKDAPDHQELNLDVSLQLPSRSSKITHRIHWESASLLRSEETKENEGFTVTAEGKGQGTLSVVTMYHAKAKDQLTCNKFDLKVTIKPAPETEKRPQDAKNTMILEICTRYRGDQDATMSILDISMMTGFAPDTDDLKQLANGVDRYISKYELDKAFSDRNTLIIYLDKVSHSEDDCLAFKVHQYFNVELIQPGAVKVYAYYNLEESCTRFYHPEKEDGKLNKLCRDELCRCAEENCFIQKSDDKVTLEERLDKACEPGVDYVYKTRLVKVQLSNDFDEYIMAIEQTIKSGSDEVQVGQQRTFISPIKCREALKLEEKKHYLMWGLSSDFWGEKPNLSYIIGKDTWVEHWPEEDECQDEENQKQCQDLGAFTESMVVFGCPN
Chain of C3b (P01024 23-667 limits assumed, chain 2 of 2): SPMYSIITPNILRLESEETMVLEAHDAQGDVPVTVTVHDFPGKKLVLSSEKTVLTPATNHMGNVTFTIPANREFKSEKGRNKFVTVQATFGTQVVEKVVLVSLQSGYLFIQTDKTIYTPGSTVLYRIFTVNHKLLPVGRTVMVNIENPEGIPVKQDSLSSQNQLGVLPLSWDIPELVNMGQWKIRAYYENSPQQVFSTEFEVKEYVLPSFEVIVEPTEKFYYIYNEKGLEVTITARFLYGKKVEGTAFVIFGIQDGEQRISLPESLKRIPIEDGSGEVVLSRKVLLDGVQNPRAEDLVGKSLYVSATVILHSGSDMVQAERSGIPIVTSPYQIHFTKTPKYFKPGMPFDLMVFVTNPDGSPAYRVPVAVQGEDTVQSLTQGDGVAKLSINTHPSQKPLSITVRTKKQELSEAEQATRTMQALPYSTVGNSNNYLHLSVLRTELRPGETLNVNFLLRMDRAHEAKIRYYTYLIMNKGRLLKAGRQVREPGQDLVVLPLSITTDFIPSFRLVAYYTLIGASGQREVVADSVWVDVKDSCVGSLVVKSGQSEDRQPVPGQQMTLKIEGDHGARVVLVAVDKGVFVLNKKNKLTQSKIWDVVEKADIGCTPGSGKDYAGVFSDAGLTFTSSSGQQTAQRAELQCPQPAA

With “soluble human CR1 (from UniProt P17927 42-1971) (receptor)” as the substance, how does the speed as cofactor in the degradation of C3b, against SPICEhis read?
Its speed as cofactor in the degradation of C3b, against SPICEhis is over 2 fold.
